Source: patent US20150344570A1 (published 2015)

T1: FcγRIIa H (FcγRIIa type H, His at position 131), extracellular domain with C-terminal His tag (human, UniProt P12318 34-217)
T1 construct: extracellular domain; also called FcgRIIa H; 2aH
T1 sequence (looked up): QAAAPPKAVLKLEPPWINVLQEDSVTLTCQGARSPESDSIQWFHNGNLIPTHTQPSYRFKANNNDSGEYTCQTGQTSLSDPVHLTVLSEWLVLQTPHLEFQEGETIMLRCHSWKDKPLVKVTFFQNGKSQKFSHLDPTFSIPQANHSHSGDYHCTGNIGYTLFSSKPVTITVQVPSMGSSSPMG


target: T1, FcγRIIa H (FcγRIIa type H, His at …); experiment: SPR Biacore, relative binding, GpH7-B3/GpL16-k0 (HoCon Ab)=100

Row | Ho/Con_2aH | Binder
1 | 101 % of control | GpH7-B3 variant T335_13S/GpL16-k0 (antibody, human IgG1, kappa, both H chains mutated; also called Ho Ab) heavy: not shown light: DIVMTQSPLSLPVTPGEPASISCQASESLVHSNRNTYLHWYLQKPGQSPQLLIYKVSNRFSGVPDRFSGSGSGTDFTLKISRVEAEDVGVYYCSQNTHVPPTFGQGTKVEIERTVAAPSVFIFPPSDEQLKSGTASVVCLLNNFYPREAKVQWKVDNALQSGNSQESVTEQDSKDSTYSLSSTLTLSKADYEKHKVYACEVTHQGLSSPVTKSFNRGEC
2 | 100 % of control | GpH7-B3 variant T335_16H/GpL16-k0 (antibody, human IgG1, kappa, both H chains mutated; also called Ho Ab) heavy: not shown light: DIVMTQSPLSLPVTPGEPASISCQASESLVHSNRNTYLHWYLQKPGQSPQLLIYKVSNRFSGVPDRFSGSGSGTDFTLKISRVEAEDVGVYYCSQNTHVPPTFGQGTKVEIERTVAAPSVFIFPPSDEQLKSGTASVVCLLNNFYPREAKVQWKVDNALQSGNSQESVTEQDSKDSTYSLSSTLTLSKADYEKHKVYACEVTHQGLSSPVTKSFNRGEC
3 | 103 % of control | GpH7-B3 variant T335_19Q/GpL16-k0 (antibody, human IgG1, kappa, both H chains mutated; also called Ho Ab) heavy: not shown light: DIVMTQSPLSLPVTPGEPASISCQASESLVHSNRNTYLHWYLQKPGQSPQLLIYKVSNRFSGVPDRFSGSGSGTDFTLKISRVEAEDVGVYYCSQNTHVPPTFGQGTKVEIERTVAAPSVFIFPPSDEQLKSGTASVVCLLNNFYPREAKVQWKVDNALQSGNSQESVTEQDSKDSTYSLSSTLTLSKADYEKHKVYACEVTHQGLSSPVTKSFNRGEC
4 | 105 % of control | GpH7-B3 variant T335_10E/GpL16-k0 (antibody, human IgG1, kappa, both H chains mutated; also called Ho Ab) heavy: not shown light: DIVMTQSPLSLPVTPGEPASISCQASESLVHSNRNTYLHWYLQKPGQSPQLLIYKVSNRFSGVPDRFSGSGSGTDFTLKISRVEAEDVGVYYCSQNTHVPPTFGQGTKVEIERTVAAPSVFIFPPSDEQLKSGTASVVCLLNNFYPREAKVQWKVDNALQSGNSQESVTEQDSKDSTYSLSSTLTLSKADYEKHKVYACEVTHQGLSSPVTKSFNRGEC
5 | 102 % of control | GpH7-B3 variant T335_15Y/GpL16-k0 (antibody, human IgG1, kappa, both H chains mutated; also called Ho Ab) heavy: not shown light: DIVMTQSPLSLPVTPGEPASISCQASESLVHSNRNTYLHWYLQKPGQSPQLLIYKVSNRFSGVPDRFSGSGSGTDFTLKISRVEAEDVGVYYCSQNTHVPPTFGQGTKVEIERTVAAPSVFIFPPSDEQLKSGTASVVCLLNNFYPREAKVQWKVDNALQSGNSQESVTEQDSKDSTYSLSSTLTLSKADYEKHKVYACEVTHQGLSSPVTKSFNRGEC

The remaining lines, values behind:

Row | Binder | Ho/Con_2aH
6 | GpH7-B3 variant S337_16H/GpL16-k0 (antibody, human IgG1, kappa, both H chains mutated; also called Ho Ab) heavy: not shown light: DIVMTQSPLSLPVTPGEPASISCQASESLVHSNRNTYLHWYLQKPGQSPQLLIYKVSNRFSGVPDRFSGSGSGTDFTLKISRVEAEDVGVYYCSQNTHVPPTFGQGTKVEIERTVAAPSVFIFPPSDEQLKSGTASVVCLLNNFYPREAKVQWKVDNALQSGNSQESVTEQDSKDSTYSLSSTLTLSKADYEKHKVYACEVTHQGLSSPVTKSFNRGEC | 102 % of control
7 | GpH7-B3 variant T335_01G/GpL16-k0 (antibody, human IgG1, kappa, both H chains mutated; also called Ho Ab) heavy: not shown light: DIVMTQSPLSLPVTPGEPASISCQASESLVHSNRNTYLHWYLQKPGQSPQLLIYKVSNRFSGVPDRFSGSGSGTDFTLKISRVEAEDVGVYYCSQNTHVPPTFGQGTKVEIERTVAAPSVFIFPPSDEQLKSGTASVVCLLNNFYPREAKVQWKVDNALQSGNSQESVTEQDSKDSTYSLSSTLTLSKADYEKHKVYACEVTHQGLSSPVTKSFNRGEC | 101 % of control
8 | GpH7-B3 variant T335_07I/GpL16-k0 (antibody, human IgG1, kappa, both H chains mutated; also called Ho Ab) heavy: not shown light: DIVMTQSPLSLPVTPGEPASISCQASESLVHSNRNTYLHWYLQKPGQSPQLLIYKVSNRFSGVPDRFSGSGSGTDFTLKISRVEAEDVGVYYCSQNTHVPPTFGQGTKVEIERTVAAPSVFIFPPSDEQLKSGTASVVCLLNNFYPREAKVQWKVDNALQSGNSQESVTEQDSKDSTYSLSSTLTLSKADYEKHKVYACEVTHQGLSSPVTKSFNRGEC | 105 % of control

target: T1, FcγRIIa H (FcγRIIa type H, His at …); experiment: SPR Biacore, relative binding, GpH7-A5/GpH7-B3/GpL16-k0 (HeCon Ab)=100
Experimental: Analysis of interaction between objective antibody and the FcγR was carried out using Biacore T100 (GE Healthcare). HBS-EP+ (GE Healthcare) was used as the running buffer, and the measurement temperature was set to 25° C. Chips produced by immobilizing the antigen peptide by the amine coupling method to a Series S Sencor Chip CM5 (GE Healthcare), or alternatively, chips produced by allowing preliminarily biotinylated antigen peptides to interact with and immobilize onto a Series S Sensor Chip SA (certified) (GE Healthcare) were used. Antibodies of interest were captured onto an antigen peptide-immobilized chip, and allowed to interact to each FcγR diluted with running buffer. To regenerate and repeatedly use the chip, the antibodies captured on the chip were washed off by reacting 10 mM glycine-HCl, pH 1.5.

Row | He/Con_2aH | Binder
9 | 111 % of control | GpH7-A5/GpH7-B3 variant I332_02A/GpL16-k0 (antibody, human IgG1, kappa, one H chain mutated; also called He Ab) heavy 1: not shown heavy 2: not shown light: DIVMTQSPLSLPVTPGEPASISCQASESLVHSNRNTYLHWYLQKPGQSPQLLIYKVSNRFSGVPDRFSGSGSGTDFTLKISRVEAEDVGVYYCSQNTHVPPTFGQGTKVEIERTVAAPSVFIFPPSDEQLKSGTASVVCLLNNFYPREAKVQWKVDNALQSGNSQESVTEQDSKDSTYSLSSTLTLSKADYEKHKVYACEVTHQGLSSPVTKSFNRGEC
10 | 119 % of control | GpH7-A5/GpH7-B3 variant G236_03V/GpL16-k0 (antibody, human IgG1, kappa, one H chain mutated; also called He Ab) heavy 1: not shown heavy 2: not shown light: DIVMTQSPLSLPVTPGEPASISCQASESLVHSNRNTYLHWYLQKPGQSPQLLIYKVSNRFSGVPDRFSGSGSGTDFTLKISRVEAEDVGVYYCSQNTHVPPTFGQGTKVEIERTVAAPSVFIFPPSDEQLKSGTASVVCLLNNFYPREAKVQWKVDNALQSGNSQESVTEQDSKDSTYSLSSTLTLSKADYEKHKVYACEVTHQGLSSPVTKSFNRGEC
11 | 115 % of control | GpH7-A5/GpH7-B3 variant G236_07I/GpL16-k0 (antibody, human IgG1, kappa, one H chain mutated; also called He Ab) heavy 1: not shown heavy 2: not shown light: DIVMTQSPLSLPVTPGEPASISCQASESLVHSNRNTYLHWYLQKPGQSPQLLIYKVSNRFSGVPDRFSGSGSGTDFTLKISRVEAEDVGVYYCSQNTHVPPTFGQGTKVEIERTVAAPSVFIFPPSDEQLKSGTASVVCLLNNFYPREAKVQWKVDNALQSGNSQESVTEQDSKDSTYSLSSTLTLSKADYEKHKVYACEVTHQGLSSPVTKSFNRGEC
12 | 133 % of control | GpH7-A5/GpH7-B3 variant H268_09D/GpL16-k0 (antibody, human IgG1, kappa, one H chain mutated; also called He Ab) heavy 1: not shown heavy 2: not shown light: DIVMTQSPLSLPVTPGEPASISCQASESLVHSNRNTYLHWYLQKPGQSPQLLIYKVSNRFSGVPDRFSGSGSGTDFTLKISRVEAEDVGVYYCSQNTHVPPTFGQGTKVEIERTVAAPSVFIFPPSDEQLKSGTASVVCLLNNFYPREAKVQWKVDNALQSGNSQESVTEQDSKDSTYSLSSTLTLSKADYEKHKVYACEVTHQGLSSPVTKSFNRGEC
13 | 112 % of control | GpH7-A5/GpH7-B3 variant H268_13S/GpL16-k0 (antibody, human IgG1, kappa, one H chain mutated; also called He Ab) heavy 1: not shown heavy 2: not shown light: DIVMTQSPLSLPVTPGEPASISCQASESLVHSNRNTYLHWYLQKPGQSPQLLIYKVSNRFSGVPDRFSGSGSGTDFTLKISRVEAEDVGVYYCSQNTHVPPTFGQGTKVEIERTVAAPSVFIFPPSDEQLKSGTASVVCLLNNFYPREAKVQWKVDNALQSGNSQESVTEQDSKDSTYSLSSTLTLSKADYEKHKVYACEVTHQGLSSPVTKSFNRGEC
14 | 124 % of control | GpH7-A5/GpH7-B3 variant H268_10E/GpL16-k0 (antibody, human IgG1, kappa, one H chain mutated; also called He Ab) heavy 1: not shown heavy 2: not shown light: DIVMTQSPLSLPVTPGEPASISCQASESLVHSNRNTYLHWYLQKPGQSPQLLIYKVSNRFSGVPDRFSGSGSGTDFTLKISRVEAEDVGVYYCSQNTHVPPTFGQGTKVEIERTVAAPSVFIFPPSDEQLKSGTASVVCLLNNFYPREAKVQWKVDNALQSGNSQESVTEQDSKDSTYSLSSTLTLSKADYEKHKVYACEVTHQGLSSPVTKSFNRGEC
15 | 108 % of control | GpH7-A5/GpH7-B3 variant A330_12R/GpL16-k0 (antibody, human IgG1, kappa, one H chain mutated; also called He Ab) heavy 1: not shown heavy 2: not shown light: DIVMTQSPLSLPVTPGEPASISCQASESLVHSNRNTYLHWYLQKPGQSPQLLIYKVSNRFSGVPDRFSGSGSGTDFTLKISRVEAEDVGVYYCSQNTHVPPTFGQGTKVEIERTVAAPSVFIFPPSDEQLKSGTASVVCLLNNFYPREAKVQWKVDNALQSGNSQESVTEQDSKDSTYSLSSTLTLSKADYEKHKVYACEVTHQGLSSPVTKSFNRGEC
16 | 111 % of control | GpH7-A5/GpH7-B3 variant G236_10E/GpL16-k0 (antibody, human IgG1, kappa, one H chain mutated; also called He Ab) heavy 1: not shown heavy 2: not shown light: DIVMTQSPLSLPVTPGEPASISCQASESLVHSNRNTYLHWYLQKPGQSPQLLIYKVSNRFSGVPDRFSGSGSGTDFTLKISRVEAEDVGVYYCSQNTHVPPTFGQGTKVEIERTVAAPSVFIFPPSDEQLKSGTASVVCLLNNFYPREAKVQWKVDNALQSGNSQESVTEQDSKDSTYSLSSTLTLSKADYEKHKVYACEVTHQGLSSPVTKSFNRGEC
